Legend:
[1] = target: T1, human PVR on cells (endogenous on HepG2 and other human tumor cell lines; full-length hPVR overexpressed in B16 cells) (human), P15151; assay: FACS on B16-hPVR cells, anti-human-IgG APC detection; conditions: remark: other sources report otherwise
T1 chain: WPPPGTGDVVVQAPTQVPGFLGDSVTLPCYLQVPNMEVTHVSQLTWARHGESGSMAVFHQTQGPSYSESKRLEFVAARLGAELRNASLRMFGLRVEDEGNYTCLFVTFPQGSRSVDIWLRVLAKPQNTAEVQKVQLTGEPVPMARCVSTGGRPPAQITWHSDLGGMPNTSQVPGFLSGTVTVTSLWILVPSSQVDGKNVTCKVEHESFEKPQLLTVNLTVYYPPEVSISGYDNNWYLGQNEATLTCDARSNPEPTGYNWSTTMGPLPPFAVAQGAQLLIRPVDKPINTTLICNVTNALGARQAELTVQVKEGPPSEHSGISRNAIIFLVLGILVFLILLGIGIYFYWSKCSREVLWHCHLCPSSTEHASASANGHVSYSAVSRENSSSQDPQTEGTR

[2] = target: T2, human PVR on cells (endogenous on HepG2 and other human tumor cell lines); full-length hPVR overexpressed in … (human, UniProt P15151 21-417); assay: cell-based or functional assay
T2 sequence (looked up): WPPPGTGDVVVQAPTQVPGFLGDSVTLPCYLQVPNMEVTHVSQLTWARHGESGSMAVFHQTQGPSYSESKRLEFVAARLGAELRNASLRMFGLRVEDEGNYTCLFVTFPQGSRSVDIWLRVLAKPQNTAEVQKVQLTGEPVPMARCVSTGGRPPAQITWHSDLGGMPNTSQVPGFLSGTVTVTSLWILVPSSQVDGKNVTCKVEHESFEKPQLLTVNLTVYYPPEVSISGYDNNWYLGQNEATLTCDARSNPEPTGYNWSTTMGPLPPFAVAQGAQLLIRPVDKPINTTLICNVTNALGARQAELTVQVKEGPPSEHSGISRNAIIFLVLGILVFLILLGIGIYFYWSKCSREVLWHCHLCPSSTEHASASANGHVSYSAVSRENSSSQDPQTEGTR

[3] = target: T3, hNectin-2 on cells (CHO cells expressing hNectin-2); RPMI-8866 cells overexpressing hNectin-2; human tumor … (human, UniProt Q92692 32-538); assay: FACS on the CHO cells expressing hNectin-2 of FIG. 7C
T3 construct: whole, on cells
T3 sequence (looked up): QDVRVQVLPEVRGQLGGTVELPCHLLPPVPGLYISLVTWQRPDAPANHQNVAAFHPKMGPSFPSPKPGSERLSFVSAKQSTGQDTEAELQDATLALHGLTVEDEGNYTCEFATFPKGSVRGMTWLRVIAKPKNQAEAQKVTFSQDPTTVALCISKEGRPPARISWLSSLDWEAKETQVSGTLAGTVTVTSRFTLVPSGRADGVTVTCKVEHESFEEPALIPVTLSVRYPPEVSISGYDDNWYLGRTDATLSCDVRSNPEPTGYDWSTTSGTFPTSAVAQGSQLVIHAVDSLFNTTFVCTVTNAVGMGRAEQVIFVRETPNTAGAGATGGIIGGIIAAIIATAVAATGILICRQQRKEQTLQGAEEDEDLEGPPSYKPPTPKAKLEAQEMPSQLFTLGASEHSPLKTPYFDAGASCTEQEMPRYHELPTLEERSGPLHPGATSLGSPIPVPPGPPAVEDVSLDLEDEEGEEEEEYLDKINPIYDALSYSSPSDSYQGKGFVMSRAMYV

[4] = target: T2, human PVR on cells (endogenous on HepG2 …); assay: cell-based or functional assay; remark: listed apart in the source

B1: Human TIGIT-Fc, Q495A1 22-141 (Fc fusion, UniProt Q495A1 22-141, looked up, not shown: a dimerising Fc or GST)
chain: MMTGTIETTGNISAEKGGSIILQCHLSSTTAQVTQVNWEQQDQLLAICNADLGWHISPSFKDRVAPGPGLGLTLQSLTVNDTGEYFCIYHTYPDGTYTGRIFLEVLESSVAEHGARFQIP
fold signal against DNAM-1-Fc [1]: 2 to 4 fold

B2: anti-PVR monoclonal antibody 7D4 (antibody, mouse IgG1, V domains shown)
VH: EVQLQQSGPELVKPGASVKISCKTSGYTFTEYTMHWVKQSHGESLEWIGGIDPNNGGTNYNQNFKGKATLTVDKSSSTAYMELRSLTSEDSAVYYCAGVIPLEYWGQGTSVTVSS
VL: DIVMTQSQKFMSTSVGDRVSVTCKASQNVYTNVAWYQQKPGQSPKALIYSASYRYRGVPDRFTGSGSGTDFTLTISNVQSEDLADYFCQQYNSYPLAFGSGTKLEIK
notes: also called hPVR.01; PVR.01
NK cell killing of the human breast adenocarcinoma cell line MDA-MB-231 ([35S]-Methionine release, specific killing) [2]: 2 fold | binding result [3]: no binding

B3: anti-PVR monoclonal antibody 5B9 (antibody, mouse IgG1, V domains shown)
VH: QVQLQQSGAELMKPGASVKISCKATGYTFSNYWIEWIKQRPGHGLEWIGEIFPGSGRINFNEKFKGKATFTADTSSDTTYMQLSSLTSADSAVYYCARTKIYGNSFDYWGQGTTLTVSP
VL: DIMMTQSHKFMSTSVGDRVNITCKASQDVGTAVVWYQQKPGQSPKLLIYWASSRHNGVPDRFTGSGSGTDFTLTISNVQSEDLSDYFCQQYSRYPLTFGAGTKLELK
notes: also called hPVR.09; PVR.09
Percentage of dead cells within 24 hrs relative to mIgG treated cells (MTT), A549 [4]: 25% | Percentage of dead cells within 24 hrs relative to mIgG treated cells (MTT), HCT-116 [4]: 22% | Percentage of dead cells within 24 hrs relative to mIgG treated cells (MTT), MDA-MB-231 [4]: 20% | Percentage of dead cells within 24 hrs relative to mIgG treated cells (MTT), Mel-624 [4]: 32% | binding result [3]: no binding

B4: anti-PVR monoclonal antibody 4E5 (antibody, mouse IgG1, V domains shown)
VH: EVKLLESGGGLVQPGGSLKLSCAASGFDFSRYWMTWVRQAPGKGLEWIGEIHPDSSKINYTPSQKDKFIISRDNAKNTLFLQMSKVRFEDTALYFCARPDGNYNALDYWGQGTSVTVSS
VL: DIVMTQSHKFMSTSVGDRVSITCKASQDVGTAVTWYQQKPGQSPKLLIYWASTRHTGVPDRFTGSESGTDFTLTISDVQSEDLANYFCQQYSRYPYTFGGGTKLEIK
notes: also called hPVR.07; PVR.07
binding result [3]: no binding
